Where two headings read alike, the source gives them in different places.

Assay [1] deals with CoV-2 (SARS-CoV-2).
For assay [2], the target named is CoV-2 (SARS-CoV-2). This is another data set of the same source.
The target in assay [3] is CoV-2 (SARS-CoV-2). This is another data set of the same source.
Assay [4] deals with SARS-CoV-2 Spike RBD-His Tag, Sino Biological (SARS-CoV-2).
Assay [5] has the same target. This is another data set of the same source.
The target is the same in assay [6]. This is another data set of the same source.
Assay [7] has the same target. This is another data set of the same source.
Assay [8] shares this target. This is another data set of the same source.
For assay [9] the target is unchanged. This is another data set of the same source.
Assay [10] has the same target. This is another data set of the same source.
The target is the same in assay [11]. The source holds these as a separate data set.
Assay [12] shares this target. The source holds these as a separate data set.
The target of assay [13] is CoV-2 (SARS-CoV-2). The source holds these as a separate data set.
Assay [14] concerns the target CoV-2 (SARS-CoV-2). This is another data set of the same source.
In assay [15] the target is SARS-CoV-2 Spike RBD-His Tag, Sino Biological (SARS-CoV-2). The source holds these as a separate data set.

B1: vhh_tstrep_sars2_pjl1_L_22 (VHH)
VHH: QVQLQESGGGLVQAGGSLRLSCAASGRTFSEYAMGWFRQAPGKEREFVATISASGGSTYYTDSVKGRFTISRDNAKNTVYLQMNSLKPDDTAVYYCAAAGLGTVVSEWDYDYDYWGQGTQVTVSS
Regarding B1, the xmid (log10) was 1.08 with CoV-2 (SARS-CoV-2) [1], 0.892 in the assay with CoV-2 (SARS-CoV-2) [2] and 0.688 in the assay with CoV-2 (SARS-CoV-2) [3].

B2: vhh_tstrep_sars2_pjl1_L_135 (VHH)
VHH: QVQLQESGGGLVQAGGSLRLSCAASGRTFSEYAMGWFRQAPGKEREFVATISWSGGATYHTDSVKGRFTISRDNAKNTVYLQMNSLKPDDTAVYYCAAAGLWTVVSEWDYDYDYWGQGTQVTVSS
As to B2, the xmid (log10) in [4] was -1.65; in assay [5], -1.5.

B3: vhh_tstrep_sars2_pjl1_L_117 (VHH)
VHH: QVQLQESGGGLVQAGGSLRLSCAASGRTFSEYAMGWFRQAPGKEREFVATISWSGGATYHTWSVKGRFTISRDNAKNTVYLQMNSLKPDDTAVYYCAAAGLGTVVSEWDYDYDYWGQGTQVTVSS
Take B3: the xmid (log10) in assay [6] was -1.5; in assay [7] it was -1.7.

B4: vhh_tstrep_sars2_pjl1_L_133 (VHH)
VHH: QVQLQESGGGLVQAGGSLRLSCAASGRTFSEYAMGWFRQAPGKEREFVATISWSGGATYHTDSVKGRFTISRDNAKNTVYLQMNSLKPDDTAVYYCAAAGLGTVVSEWDYDYDSWGQGTQVTVSS
With B4, the xmid (log10) was -1.46 in assay [8] and -1.7 in assay [4].

B5: vhh_tstrep_sars2_pjl1_L_126 (VHH)
VHH: QVQLQESGGGLVQAGGSLRLSCAASGRTFSEYAMGWFRQAPGKEREFVATISWSGGASYHTDSVKGRFTISRDNAKNTVYLQMNSLKPDDTAVYYCAAAGLGTVVSEWDYDYDYWGQGTQVTVSS
Turning to B5, the results for the xmid (log10) in assay [5] and in assay [9] were 0.489 and -0.398, respectively.

B6: vhh_tstrep_sars2_pjl1_L_119 (VHH)
VHH: QVQLQESGGGLVQAGGSLRLSCAASGRTFSEYAMGWFRQAPGKEREFVATESWSGGATYHTDSVKGRFTISRDNAKNTVYLQMNSLKPDDTAVYYCAAAGLGTVVSEWDYDYDYWGQGTQVTVSS
Consider B6, for which the xmid (log10) was found to be 0.39 in [10] and 0.385 in assay [7].

B7: vhh_tstrep_sars2_pjl1_L_125 (VHH)
VHH: QVQLQESGGGLVQAGGSLRLSCAASGRTFSEYAMGWFRQAPGKEREFVATISWSGGATYHTDSVKGRFTISRDNAKNTVYLQMNSLKPDDTAVYYCAAAGLRTVVSEWDYDYDYWGQGTQVTVSS
On to B7, for which the xmid (log10) in assay [8] amounted to 0.297; in [10], 0.108.

B8: vhh_tstrep_sars2_pjl1_L_137 (VHH)
VHH: QVQLQESGGGLVQAGGSLRLSCAASGRTFSEYAMGWFRQAPGKEREFVATISWSGGATYHTDSVKGRFTISRDNAKNTVYLQMNSLKPDDTAVYYCAAAGLGTVVSAWDYDYDYWGQGTQVTVSS
Take B8: the xmid (log10) is -1.3 in assay [4] and -0.676 in assay [11].

B9: vhh_tstrep_sars2_pjl1_L_118 (VHH)
VHH: QVQLQESGGGLVQAGGSLRLSCAASGRTFSEYAMGWFRQAPGKEREFVATISWSGGATGHTDSVKGRFTISRDNAKNTVYLQMNSLKPDDTAVYYCAAAGLGTVVSEWDYDYDYWGQGTQVTVSS
With B9, the xmid (log10) in assay [7] worked out at 0.784; in assay [9] it was 0.412.

B10: vhh_tstrep_sars2_pjl1_L_127 (VHH)
VHH: QVQLQESGGGLVQAGGSLRLSCAASGRTFSEYAMGWFRQAPGKEREFVATISWSGGAAYHTDSVKGRFTISRDNAKNTVYLQMNSLKPDDTAVYYCAAAGLGTVVSEWDYDYDYWGQGTQVTVSS
Consider B10, for which the xmid (log10) was 0.479 in assay [7] and -0.006 in assay [9].

B11: vhh_tstrep_sars2_pjl1_L_116 (VHH)
VHH: QVQLQESGGGLVQAGGSLRLSCAASGRTFSEYAMGWFRQAPGKEREFVASISWSGGATYHTDSVKGRFTISRDNAKNTVYLQMNSLKPDDTAVYYCAAAGLGTVVSEWDYDYDYWGQGTQVTVSS
In the case of B11, the xmid (log10) is -0.0157 in [12] and 0.288 in [10].

B12: vhh_tstrep_sars2_pjl1_L_40 (VHH)
VHH: QVQLQESGGGLVQAGGSLRLSCAASGRTFSEYAMGWFRQAPGKEREFVATISWSGGSTYYTASVKGRFTISRDNAKNTVYLQMNSLKPDDTAVYYCAAAGLGTVVSEWDYDYDYWGQGTQVTVSS
In the case of B12, the results for the xmid (log10) in the assay with CoV-2 (SARS-CoV-2) [13] and with CoV-2 (SARS-CoV-2) [14] were -0.664 and 0.226, respectively.

B13: vhh_tstrep_sars2_pjl1_L_124 (VHH)
VHH: QVQLQESGGGLVQAGGSLRLSCAASGRTFSEYAMGWFRQAPGKEREFVATISWSGGGTYHTDSVKGRFTISRDNAKNTVYLQMNSLKPDDTAVYYCAAAGLGTVVSEWDYDYDYWGQGTQVTVSS
As to B13, the xmid (log10) was -1.84 in assay [8] and -1.89 in [9].

B14: vhh_tstrep_sars2_pjl1_L_121 (VHH)
VHH: QVQLQESGGGLVQAGGSLRLSCAASGRTFSEYAMGWFRQAPGKEREFVATISWSGWATYHTDSVKGRFTISRDNAKNTVYLQMNSLKPDDTAVYYCAAAGLGTVVSEWDYDYDYWGQGTQVTVSS
Consider B14, for which the results for the xmid (log10) in assay [7] and in assay [9] were -0.224 and -0.645, respectively.

B15: vhh_tstrep_sars2_pjl1_L_120 (VHH)
VHH: QVQLQESGGGLVQAGGSLRLSCAASGRTFSEYAMGWFRQAPGKEREFVATISWSGGATYHTDSVDGRFTISRDNAKNTVYLQMNSLKPDDTAVYYCAAAGLGTVVSEWDYDYDYWGQGTQVTVSS
Consider B15, for which the xmid (log10) in [12] is -0.493; in [10], -0.0348.

B16: vhh_tstrep_sars2_pjl1_L_32 (VHH)
VHH: QVQLQESGGGLVQAGGSLRLSCAASGRTFSEYAMGWFRQAPGKEREFVATISWSGGSTYYTDSVKGRFTISRDNAKNTVYLQMNSLKPDDTAVYYCAAAGLGTVVSAWDYDYDYWGQGTQVTVSS
B16: the xmid (log10) is 0.239 with CoV-2 (SARS-CoV-2) [1], 0.532 in the assay with CoV-2 (SARS-CoV-2) [2] and -0.271 with CoV-2 (SARS-CoV-2) [3].

B17: vhh_tstrep_sars2_pjl1_L_129 (VHH)
VHH: QVQLQESGGGLVQAGGSLRLSCAASGRTFSEYAMGWFRQAPGKEREFVATISWSGGATYHTTSVKGRFTISRDNAKNTVYLQMNSLKPDDTAVYYCAAAGLGTVVSEWDYDYDYWGQGTQVTVSS
Turning to B17, the xmid (log10) in [7] and in assay [15] was -1.34 throughout.

B18: vhh_tstrep_sars2_pjl1_L_128 (VHH)
VHH: QVQLQESGGGLVQAGGSLRLSCAASGRTFSEYAMGWFRQAPGKEREFVATISPSGGATYHTDSVKGRFTISRDNAKNTVYLQMNSLKPDDTAVYYCAAAGLGTVVSEWDYDYDYWGQGTQVTVSS
For the molecule B18, the xmid (log10) in [5] is 0.384; in [15], -0.2.

B19: vhh_tstrep_sars2_pjl1_L_46 (VHH)
VHH: QVQLQESGGGLVQAGGSLRLSCAASGRTFSEYAMGWFRQAPGKEREFVATISWSGGSTYYTDSVKGRFTISRDNAKNTVYLQMNSLKPDDTAVYYCAAAGLGTVVSEADYDYDYWGQGTQVTVSS
On to B19, for which, in the assay with CoV-2 (SARS-CoV-2) [13], the xmid (log10) was determined as 1.65.

B20: vhh_tstrep_sars2_pjl1_L_38 (VHH)
VHH: QVQLQESGGGLVQAGGSLRLSCAASGRTFSEYAMGWFRQAPGKEREFVATISWSGGSTYYTDSVKGRFTISRDNAKNTVYLQMNSLKPDDTAVYYCAAAGLGTVVSEWAYDYDYWGQGTQVTVSS
Consider B20, for which the results for the xmid (log10) with CoV-2 (SARS-CoV-2) [13], with CoV-2 (SARS-CoV-2) [1] and with CoV-2 (SARS-CoV-2) [2] were -0.286, 0.0417 and 0.854, respectively.

B21: vhh_tstrep_sars2_pjl1_L_132 (VHH)
VHH: QVQLQESGGGLVQAGGSLRLSCAASGRTFSEYAMGWFRQAPGKEREFVATISWGGGATYHTDSVKGRFTISRDNAKNTVYLQMNSLKPDDTAVYYCAAAGLGTVVSEWDYDYDYWGQGTQVTVSS
With B21, the xmid (log10) in assay [4] was -0.157; in [11], 0.0703.

B22: vhh_tstrep_sars2_pjl1_L_130 (VHH)
VHH: QVQLQESGGGLVQAGGSLRLSCAASGRTFSEYAMGWFRQAPGKEREFVATISWSGGATYHTDSVKARFTISRDNAKNTVYLQMNSLKPDDTAVYYCAAAGLGTVVSEWDYDYDYWGQGTQVTVSS
On to B22, for which the xmid (log10) in assay [5] was 0.204; in assay [15], -0.532.

B23: vhh_tstrep_sars2_pjl1_L_24 (VHH)
VHH: QVQLQESGGGLVQAGGSLRLSCAASGRTFSEYAMGWFRQAPGKEREFVATISWSGGSTAYTDSVKGRFTISRDNAKNTVYLQMNSLKPDDTAVYYCAAAGLGTVVSEWDYDYDYWGQGTQVTVSS
Consider B23, for which the xmid (log10) came out at 0.908 with CoV-2 (SARS-CoV-2) [2], 0.582 with CoV-2 (SARS-CoV-2) [3] and 0.515 with CoV-2 (SARS-CoV-2) [14].

B24: vhh_tstrep_sars2_pjl1_L_123 (VHH)
VHH: QVQLQESGGGLVQAGGSLRLSCAASGRTFSEYAMGWFRQAPGKEREFVATISWIGGATYHTDSVKGRFTISRDNAKNTVYLQMNSLKPDDTAVYYCAAAGLGTVVSEWDYDYDYWGQGTQVTVSS
Regarding B24, the xmid (log10) in [4] amounted to 0.157; in [5], 0.9.

The values are drawn from patent US20240059759A1.
